The target of this assay is CR3022/S1 complex (one monomer of the spike ectodomain with one bound CR3022 Fab) (SARS-CoV-2 | human) (UniProt P0DTC2). As to the kind of experiment: cryo-EM structure.

On to “CR3022/S1 complex (one monomer of the spike ectodomain with one bound CR3022 Fab) (from UniProt P0DTC2 14-1208)”, for which the stoichiometry N (as a rule, the number of molecules, sites or subunits per partner or assembly) was determined as 2.

(Values after article PMC7577971.)
